What was measured:
Assay in all cases: EMSA
Settings in all cases: tags: MBP fusion
ZFP SBS#262 = ZFP SBS#262 (synthetic)
In short: (§1)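 Purified ZFP was titrated against labeled double-stranded target (1 nM or lower, at least 10-fold below expected Kd) carrying the natural binding site with flanks. Binding buffer was 10 mM Tris pH 7.5, 100 mM KCl, 1 mM MgCl2, 0.1 mM ZnCl2, 5 mM DTT, 10% glycerol, 0.02% BSA, with equilibration for at least 45 min. Bound and free target were separated on a 10% polyacrylamide gel.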

ZFP SBS#263 = ZFP SBS#263 (synthetic, UniProt P08047)
ZFP SBS#263, sequence (P08047 other isoform, or with tags, fused parts or gaps): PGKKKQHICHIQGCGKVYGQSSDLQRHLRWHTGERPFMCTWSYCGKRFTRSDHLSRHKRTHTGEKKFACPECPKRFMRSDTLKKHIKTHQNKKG
In short: as §1

ZFP SBS#1389 = target: T1, ZFP SBS#1389 (synthetic)
T1 chain: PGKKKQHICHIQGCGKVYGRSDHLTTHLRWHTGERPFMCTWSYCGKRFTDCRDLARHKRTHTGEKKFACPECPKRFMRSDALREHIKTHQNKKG
In short: as §1

ZFP SBS#1329 = target: T2, ZFP SBS#1329 (synthetic)
T2 chain: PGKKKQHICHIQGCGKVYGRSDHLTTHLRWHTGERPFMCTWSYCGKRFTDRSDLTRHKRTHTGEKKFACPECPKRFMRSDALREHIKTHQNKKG
In short: as §1

ZFP SBS#1331 = target: T3, ZFP SBS#1331 (synthetic)
T3 chain: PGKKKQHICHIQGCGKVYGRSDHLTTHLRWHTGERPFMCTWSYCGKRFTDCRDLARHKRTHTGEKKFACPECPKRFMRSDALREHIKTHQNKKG
In short: as §1

ZFP SBS#1360 = target: T4, ZFP SBS#1360 (synthetic)
T4 chain: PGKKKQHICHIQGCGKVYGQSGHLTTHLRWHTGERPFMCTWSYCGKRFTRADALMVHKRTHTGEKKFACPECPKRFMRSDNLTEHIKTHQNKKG
In short: as §1

ZFP SBS#1363 = target: T5, ZFP SBS#1363 (synthetic)
T5 chain: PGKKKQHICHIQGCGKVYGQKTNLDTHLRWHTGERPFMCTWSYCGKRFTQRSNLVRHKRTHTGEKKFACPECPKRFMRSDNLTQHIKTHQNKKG
In short: as §1

ZFP SBS#1361 = target: T6, ZFP SBS#1361 (synthetic)
T6 chain: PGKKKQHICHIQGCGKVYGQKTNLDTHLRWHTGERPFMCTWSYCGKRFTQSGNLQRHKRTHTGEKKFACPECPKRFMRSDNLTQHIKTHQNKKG
In short: as §1

ZFP SBS#1362 = ZFP SBS#1362 (synthetic)
In short: as §1

ZFP SBS#1366 = target: T7, ZFP SBS#1366 (synthetic)
T7 chain: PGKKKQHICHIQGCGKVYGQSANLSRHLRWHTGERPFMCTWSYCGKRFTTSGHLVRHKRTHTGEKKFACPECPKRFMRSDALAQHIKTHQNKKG
In short: as §1

ZFP SBS#1364 = target: T8, ZFP SBS#1364 (synthetic)
T8 chain: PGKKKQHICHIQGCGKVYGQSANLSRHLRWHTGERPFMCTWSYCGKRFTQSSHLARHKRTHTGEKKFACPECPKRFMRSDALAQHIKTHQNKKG
In short: as §1

ZFP SBS#1367 = target: T9, ZFP SBS#1367 (synthetic)
T9 chain: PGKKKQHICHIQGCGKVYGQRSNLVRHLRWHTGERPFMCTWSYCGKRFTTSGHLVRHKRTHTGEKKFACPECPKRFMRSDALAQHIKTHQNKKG
In short: as §1

ZFP SBS#1365 = target: T10, ZFP SBS#1365 (synthetic)
T10 chain: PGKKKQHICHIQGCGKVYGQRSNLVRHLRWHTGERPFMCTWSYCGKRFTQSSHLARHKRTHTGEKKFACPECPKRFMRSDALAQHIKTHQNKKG
In short: as §1

ZFP SBS#1369 = target: T11, ZFP SBS#1369 (synthetic)
T11 chain: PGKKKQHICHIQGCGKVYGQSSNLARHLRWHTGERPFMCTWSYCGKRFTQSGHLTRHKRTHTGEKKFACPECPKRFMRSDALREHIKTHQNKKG
In short: as §1

ZFP SBS#1368 = target: T12, ZFP SBS#1368 (synthetic)
T12 chain: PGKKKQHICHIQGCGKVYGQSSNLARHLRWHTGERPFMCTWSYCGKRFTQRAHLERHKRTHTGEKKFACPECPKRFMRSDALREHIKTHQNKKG
In short: as §1

ZFP SBS#1373 = target: T13, ZFP SBS#1373 (synthetic, UniProt P08047)
T13 chain: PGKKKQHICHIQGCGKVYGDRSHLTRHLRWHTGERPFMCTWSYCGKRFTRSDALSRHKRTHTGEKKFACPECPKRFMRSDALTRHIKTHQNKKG
In short: as §1

ZFP SBS#262 (synthetic), sequence (chain, as listed by the source): as the sequence (P08047 other isoform, or with tags, fused parts or gaps) above, with T81E, K83R, K84R counted along it

B1: GCGGGGGCT (dsDNA)
DNA 1: GCGGGGGCT
DNA 2: AGCCCCCGC
Work on B1 yielded a Kd (ZFP SBS#262) of 20 nM and a Kd (ZFP SBS#263) of 1 nM.

B2: CTGGCCTGG (dsDNA)
DNA 1: CTGGCCTGG
DNA 2: CCAGGCCAG
B2 was tested, and the Kd (ZFP SBS#1389) was 0.175 nM, the Kd (ZFP SBS#1329) was 0.68 nM and the Kd (ZFP SBS#1331) was 0.388 nM.

B3: CAGTTGTGA (dsDNA)
DNA 1: CAGTTGTGA
DNA 2: TCACAACTG
Work on B3 yielded a Kd (ZFP SBS#1360) of 41.7 nM.

B4: AAGGAAAAA (dsDNA)
DNA 1: AAGGAAAAA
DNA 2: TTTTTCCTT
In the case of B4, the Kd (ZFP SBS#1363) is reported as 74.1 nM, the Kd (ZFP SBS#1361) is reported as 0.835 nM and the Kd (ZFP SBS#1362) is reported as 0.332 nM.

B5: ATGGGTGAA (dsDNA)
DNA 1: ATGGGTGAA
DNA 2: TTCACCCAT
For B5, the Kd (ZFP SBS#1366) was 22.6 nM, the Kd (ZFP SBS#1364) was 1.22 nM and the Kd (ZFP SBS#1367) was 1.03 nM. The Kd (ZFP SBS#1365) was 0.152 nM.

B6: CTGGGAGAT (dsDNA)
DNA 1: CTGGGAGAT
DNA 2: ATCTCCCAG
B6 gave a Kd (ZFP SBS#1369) of 0.227 nM and a Kd (ZFP SBS#1368) of 0.051 nM.

B7: GTGGTGGGC (dsDNA)
DNA 1: GTGGTGGGC
DNA 2: GCCCACCAC
B7 showed a Kd (ZFP SBS#1373) of 0.025 nM.
